Measurements from patent US20160244802.

Key:
[1] = target: T1, histone H3 (1-18) peptide, H3K4me3 (Upstate 12-564), P68431
T1 chain: ARTKQTARKSTGGKAPRK

[2] = target: T2, histone H3 (1-18) peptide, H3K4me1 (Upstate 12-563), P68431
T2 chain: ARTKQTARKSTGGKAPRK

[3] = target: T3, histone H3 (1-18) peptide, H3K4me2 (Upstate 12-460), P68431
T3 chain: ARTKQTARKSTGGKAPRK

[4] = target: T4, histone H3 (1-18) peptide, tri-methyl on lysine 9, P68431
T4 chain: ARTKQTARKSTGGKAPRK

[5] = target: T5, histone H3 (1-18) peptide, di-methyl on lysine 9, P68431
T5 chain: ARTKQTARKSTGGKAPRK

[6] = target: T6, trimethyl-K9 histone H3 peptide (acetyl-ARTKQTARmeKSTGGKAPRK-biotin)
T6 chain: ARTKQTARKSTGGKAPRK

[7] = target: T7, dimethyl-K9 histone H3 peptide (acetyl-ARTKQTARmeKSTGGKAPRK-biotin)
T7 chain: ARTKQTARKSTGGKAPRK

[8] = target: trimethyl-K36 histone H3 peptide
[9] = target: T8, dimethyl-K36 histone H3 peptide (STGGV2mKKPHRY-C)
T8 chain: STGGVKKPHRYC

B1: recombinant Flag-RBP2 (Retinoblastoma Binding Protein 2, JARID1A) (protein)
chain: MAGVGPGGYAAEFVPPPECPVFEPSWEEFTDPLSFIGRIRPLAEKTGICKIRPPKDWQPPFACEVKSFRFTPRVQRLNELEAMTRVRLDFLDQLAKFWELQGSTLKIPVVERKILDLYALSKIVASKGGFEMVTKEKKWSKVGSRLGYLPGKGTGSLLKSHYERILYPYELFQSGVSLMGVQMPNLDLKEKVEPEVLSTDTQTSPEPGTRMNILPKRTRRVKTQSESGDVSRNTELKKLQIFGAGPKVVGLAMGTKDKEDEVTRRRKVTNRSDAFNMQMRQRKGTLSVNFVDLYVCMFCGRGNNEDKLLLCDGCDDSYHTFCLIPPLPDVPKGDWRCPKCVAEECSKPREAFGFEQAVREYTLQSFGEMADNFKSDYFNMPVHMVPTELVEKEFWRLVSSIEEDVIVEYGADISSKDFGSGFPVKDGRRKILPEEEEYALSGWNLNNMPVLEQSVLAHINVDISGMKVPWLYVGMCFSSFCWHIEDHWSYSINYLHWGEPKTWYGVPSHAAEQLEEVMRELAPELFESQPDLLHQLVTIMNPNVLMEHGVPVYRTNQCAGEFVVTFPRAYHSGFNQGYNFAEAVNFCTADWLPIGRQCVNHYRRLRRHCVFSHEELIFKMAADPECLDVGLAAMVCKELTLMTEEETRLRESVVQMGVLMSEEEVFELVPDDERQCSACRTTCFLSALTCSCNPERLVCLYHPTDLCPCPMQKKCLRYRYPLEDLPSLLYGVKVRAQSYDTWVSRVTEALSANFNHKKDLIELRVMLEDAEDRKYPENDLFRKLRDAVKEAETCASVAQLLLSKKQKHRQSPDSGRTRTKLTVEELKAFVQQLFSLPCVISQARQVKNLLDDVEEFHERAQEAMMDETPDSSKLQMLIDMGSSLYVELPELPRLKQELQQARWLDEVRLTLSDPQQVTLDVMKKLIDSGVGLAPHHAVEKAMAELQELLTVSERWEEKAKVCLQARPRHSVASLESIVNEAKNIPAFLPNVLSLKEALQKAREWTAKVEAIQSGSNYAYLEQLESLSAKGRPIPVRLEALPQVESQVAAARAWRERTGRTFLKKNSSHTLLQVLSPRTDIGVYGSGKNRRKKVKELIEKEKEKDLDLEPLSDLEEGLEETRDTAMVVAVFKEREQKEIEAMHSLRAANLAKMTMVDRIEEVKFCICRKTASGFMLQCELCKDWFHNSCVPLPKSSSQKKGSSWQAKEVKFLCPLCMRSRRPRLETILSLLVSLQKLPVRLPEGEALQCLTERAMSWQDRARQALATDELSSALAKLSVLSQRMVEQAAREKTEKIISAELQKAAANPDLQGHLPSFQQSAFNRVVSSVSSSPRQTMDYDDEETDSDEDIRETYGYDMKDTASVKSSSSLEPNLFCDEEIPIKSEEVVTHMWTAPSFCAEHAYSSASKSCSQGSSTPRKQPRKSPLVPRSLEPPVLELSPGAKAQLEELMMVGDLLEVSLDETQHIWRILQATHPPSEDRFLHIMEDDSMEEKPLKVKGKDSSEKKRKRKLEKVEQLFGEGKQKSKELKKMDKPRKKKLKLGADKSKELNKLAKKLAKEEERKKKKEKAAAAKVELVKESTEKKREKKVLDIPSKYDWSGAEESDDENAVCAAQNCQRPCKDKVDWVQCDGGCDEWFHQVCVGVSPEMAENEDYICINCAKKQGPVSPGPAPPPSFIMSYKLPMEDLKETS
For B1, the “demethylation of peptide substrate, mass spectrometry” value (“demethylation of peptide substrate” for short) [1] was 80-90% demethylation of the modified substrate, the “demethylation of peptide substrate” value [2] was “failed to catalyze removal of the mel modification state” and the “demethylation of peptide substrate” value [3] was 80-90% demethylation of the modified substrate.

B2: recombinant Flag-JHDM3A (JMJD2A) (protein)
chain: MASESETLNPSARIMTFYPTMEEFRNFSRYIAYIESQGAHRAGLAKVVPPKEWKPRASYDDIDDLVIPAPIQQLVTGQSGLFTQYNIQKKAMTVREFRKIANSDKYCTPRYSEFEELERKYWKNLTFNPPIYGADVNGTLYEKHVDEWNIGRLRTILDLVEKESGITIEGVNTPYLYFGMWKTSFAWHTEDMDLYSINYLHFGEPKSWYSVPPEHGKRLERLAKGFFPGSAQSCEAFLRHKMTLISPLMLKKYGIPFDKVTQEAGEFMITFPYGYHAGFNHGFNCAESTNFATRRWIEYGKQAVLCSCRKDMVKISMDVFVRKFQPERYKLWKAGKDNTVIDHTLPTPEAAEFLKESELPPRAGNEEECPEEDMEGVEDGEEGDLKTSLAKHRIGTKRHRVCLEIPQEVSQSELFPKEDLSSEQYEMTECPAALAPVRPTHSSVRQVEDGLTFPDYSDSTEVKFEELKNVKLEEEDEEEEQEAAALDLSVNPASVGGRLVFSGSKKKSSSSLGSGSSRDSISSDSETSEPLSCRAQGQTGVLTVHSYAKGDGRVTVGEPCTRKKGSAARSFSERELAEVADEYMFSLEENKKSKGRRQPLSKLPRHHPLVLQECVSDDETSEQLTPEEEAEETEAWAKPLSQLWQNRPPNFEAEKEFNETMAQQAPHCAVCMIFQTYHQVEFGGFNQNCGNASDLAPQKQRTKPLIPEMCFTSTGCSTDINLSTPYLEEDGTSILVSCKKCSVRVHASCYGVPPAKASEDWMCSRCSANALEEDCCLCSLRGGALQRANDDRWVHVSCAVAILEARFVNIAERSPVDVSKIPLPRFKLKCIFCKKRRKRTAGCCVQCSHGRCPTAFHVSCAQAAGVMMQPDDWPFVVFITCFRHKIPNLERAKGALQSITAGQKVISKHKNGRFYQCEVVRLTTETFYEVNFDDGSFSDNLYPEDIVSQDCLQFGPPAEGEVVQVRWTDGQVYGAKFVASHPIQMYQVEFEDGSQLVVKRDDVYTLDEELPKRVKSRLSVASDMRFNEIFTEKEVKQEKKRQRVINSRYREDYIEPALYRAIME
B2 was tested, and the “demethylation of peptide substrate” value [4] was “the trimethyl-K9 peptide was converted to a dimethyl-K9 peptide” and the “demethylation of peptide substrate” value [5] was “no demethylation was observed on a di-methyl H3K9 peptide”.

B3: recombinant Flag-JHDM2A (JmjC domain-containing histone demethylase 2A) (protein)
chain: MVLTLGESWPVLVGRRFLSLSAADGSDGSHDSWDVERVAEWPWLSGTIRAVSHTDVTKKDLKVCVEFDGESWRKRRWIEVYSLLRRAFLVEHNLVLAERKSPEISERIVQWPAITYKPLLDKAGLGSITSVRFLGDQQRVFLSKDLLKPIQDVNSLRLSLTDNQIVSKEFQALIVKHLDESHLLKGDKNLVGSEVKIYSLDPSTQWFSATVINGNPASKTLQVNCEEIPALKIVDPSLIHVEVVHDNLVTCGNSARIGAVKRKSSENNGTLVSKQAKSCSEASPSMCPVQSVPTTVFKEILLGCTAATPPSKDPRQQSTPQAANSPPNLGAKIPQGCHKQSLPEEISSCLNTKSEALRTKPDVCKAGLLSKSSQIGTGDLKILTEPKGSCTQPKTNTDQENRLESVPQALTGLPKECLPTKASSKAELEIANPPELQKHLEHAPSPSDVSNAPEVKAGVNSDSPNNCSGKKVEPSALACRSQNLKESSVKVDNESCCSRSNNKIQNAPSRKSVLTDPAKLKKLQQSGEAFVQDDSCVNIVAQLPKCRECRLDSLRKDKEQQKDSPVFCRFFHFRRLQFNKHGVLRVEGFLTPNKYDNEAIGLWLPLTKNVVGIDLDTAKYILANIGDHFCQMVISEKEAMSTIEPHRQVAWKRAVKGVREMCDVCDTTIFNLHWVCPRCGFGVCVDCYRMKRKNCQQGAAYKTFSWLKCVKSQIHEPENLMPTQIIPGKALYDVGDIVHSVRAKWGIKANCPCSNRQFKLFSKPASKEDLKQTSLAGEKPTLGAVLQQNPSVLEPAAVGGEAASKPAGSMKPACPASTSPLNWLADLTSGNVNKENKEKQPTMPILKNEIKCLPPLPPLSKSSTVLHTFNSTILTPVSNNNSGFLRNLLNSSTGKTENGLKNTPKILDDIFASLVQNKTTSDLSKRPQGLTIKPSILGFDTPHYWLCDNRLLCLQDPNNKSNWNVFRECWKQGQPVMVSGVHHKLNSELWKPESFRKEFGEQEVDLVNCRTNEIITGATVGDFWDGFEDVPNRLKNEKEPMVLKLKDWPPGEDFRDMMPSRFDDLMANIPLPEYTRRDGKLNLASRLPNYFVRPDLGPKMYNAYGLITPEDRKYGTTNLHLDVSDAANVMVYVGIPKGQCEQEEEVLKTIQDGDSDELTIKRFIEGKEKPGALWHIYAAKDTEKIREFLKKVSEEQGQENPADHDPIHDQSWYLDRSLRKRLHQEYGVQGWAIVQFLGDVVFIPAGAPHQVHNLYSCIKVAEDFVSPEHVKHCFWLTQEFRYLSQTHTNHEDKLQVKNVIYHAVKDAVAMLKASESSFGKP
For B3, the “demethylation of peptide substrate” value [6] was “no demethylation was detected when a trimethyl-K9 peptide, that has the same sequence, was subjected to parallel analysis” and the “demethylation of peptide substrate” value [7] was “demethylation of a dimethyl-K9 peptide depends on the presence of JHDM2A and generated products with masses that correlate with both mono-methyl and unmethylated forms of the peptide”.

B4: recombinant Flag-JHDM1A (FBXL11) (protein)
chain: MEPEEERIRYSQRLRGTMRRRYEDDGISDDEIEGKRTFDLEEKLHTNKYNANFVTFMEGKDFNVEYIQRGGLRDPLIFKNSDGLGIKMPDPDFTVNDVKMCVGSRRMVDVMDVNTQKGIEMTMAQWTRYYETPEEEREKLYNVISLEFSHTRLENMVQRPSTVDFIDWVDNMWPRHLKESQTESTNAILEMQYPKVQKYCLMSVRGCYTDFHVDFGGTSVWYHIHQGGKVFWLIPPTAHNLELYENWLLSGKQGDIFLGDRVSDCQRIELKQGYTFVIPSGWIHAVYTPTDTLVFGGNFLHSFNIPMQLKIYNIEDRTRVPNKFRYPFYYEMCWYVLERYVYCITNRSHLTKEFQKESLSMDLELNGLESGNGDEEAVDREPRRLSSRRSVLTSPVANGVNLDYDGLGKTCRSLPSLKKTLAGDSSSDCSRGSHNGQVWDPQCAPRKDRQVHLTHFELEGLRCLVDKLESLPLHKKCVPTGIEDEDALIADVKILLEELANSDPKLALTGVPIVQWPKRDKLKFPTRPKVRVPTIPITKPHTMKPAPRLTPVRPAAASPIVSGARRRRVRCRKCKACVQGECGVCHYCRDMKKFGGPGRMKQSCVLRQCLAPRLPHSVTCSLCGEVDQNEETQDFEKKLMECCICNEIVHPGCLQMDGEGLLNEELPNCWECPKCYQEDSSEKAQKRKMEESDEEAVQAKVLRPLRSCDEPLTPPPHSPTSMLQLIHDPVSPRGMVTRSSPGAGPSDHHSASRDERFKRRQLLRLQATERTMVREKENNPSGKKELSEVEKAKIRGSYLTVTLQRPTKELHGTSIVPKLQAITASSANLRHSPRVLVQHCPARTPQRGDEEGLGGEEEEEEEEEEEDDSAEEGGAARLNGRGSWAQDGDESWMQREVWMSVFRYLSRRELCECMRVCKTWYKWCCDKRLWTKIDLSRCKAIVPQALSGIIKRQPVSLDLSWTNISKKQLTWLVNRLPGLKDLLLAGCSWSAVSALSTSSCPLLRTLDLRWAVGIKDPQIRDLLTPPADKPGQDNRSKLRNMTDFRLAGLDITDATLRLIIRHMPLLSRLDLSHCSHLTDQSSNLLTAVGSSTRYSLTELNMAGCNKLTDQTLIYLRRIANVTLIDLRGCKQITRKACEHFISDLSINSLYCLSDEKLIQKIS
For B4, the “demethylation of peptide substrate” value [8] was “we did not detect any demethylation when a trimethyl-K36 peptide was subjected to a parallel reaction (data not shown)” and the “demethylation of peptide substrate” value [9] was “revealed the generation of mono- and unmethylated forms of the peptide in a JHDM1A-dependent manner”.
